Numbering of substitutions follows the chain as printed. Numbers in names are those of the source.
B1: ins_A2_T3_R: SEQ ID NO: 14 with insertion of Arg between A2 and T3 (protein)
chain: MARTKNSSGMSLAERFWLTLSRSSLVVGRSCVEFEPETVPLLSTLRGKPITFLGLMPPLHEGRREDGEDATVRWLDAQPAKSVVYVALGSEVPLGVEKVHELALGLELAGTRFLWALRKPTGVSDADLLPAGFEERTRGRGVVATRWVPQMSILAHAAVGAFLTHCGWNSTIEGLMFGHPLIMLPITGDQGPNARLIEAKNAGLQVARNDGDGSFDREGVAAAIRAVAVEEESSKVFQAKAKKLQEIVADMACHERYIDGFIQQLRSYKDDSGYSSSYAAAAGMHVVICPWLAFGHLLPCLDLAQRLASRGHRVSFVSTPRNISRLPPVRPALAPLVAFVALPLPRVEGLPDGAESTNDVPHDRPDMVELHRRAFDGLAAPFSEFLGTACADWVIVDSFHHWAAAAALEHKVPCAMMLLGSAEMIASIADERLEHAETESPAAAGQGRPAAAPTFEVARMKLIR
B2: V26I: mutation to UGT enzyme of SEQ ID NO: 14 (protein)
chain: MATKNSSGMSLAERFWLTLSRSSLVIGRSCVEFEPETVPLLSTLRGKPITFLGLMPPLHEGRREDGEDATVRWLDAQPAKSVVYVALGSEVPLGVEKVHELALGLELAGTRFLWALRKPTGVSDADLLPAGFEERTRGRGVVATRWVPQMSILAHAAVGAFLTHCGWNSTIEGLMFGHPLIMLPITGDQGPNARLIEAKNAGLQVARNDGDGSFDREGVAAAIRAVAVEEESSKVFQAKAKKLQEIVADMACHERYIDGFIQQLRSYKDDSGYSSSYAAAAGMHVVICPWLAFGHLLPCLDLAQRLASRGHRVSFVSTPRNISRLPPVRPALAPLVAFVALPLPRVEGLPDGAESTNDVPHDRPDMVELHRRAFDGLAAPFSEFLGTACADWVIVDSFHHWAAAAALEHKVPCAMMLLGSAEMIASIADERLEHAETESPAAAGQGRPAAAPTFEVARMKLIR
B3: A238E: mutation to UGT enzyme of SEQ ID NO: 14 (protein)
chain: B2 chain with I26V, A238E
B4: T186M: mutation to UGT enzyme of SEQ ID NO: 14 (protein)
chain: B2 chain with I26V, T186M
B5: L417F: mutation to UGT enzyme of SEQ ID NO: 14 (protein)
chain: B2 chain with I26V, L417F
B6: L417M: mutation to UGT enzyme of SEQ ID NO: 14 (protein)
chain: B2 chain with I26V, L417M
B7: R145S: mutation to UGT enzyme of SEQ ID NO: 14 (protein)
chain: B2 chain with I26V, R145S
B8: I152L: mutation to UGT enzyme of SEQ ID NO: 14 (protein)
chain: B2 chain with I26V, I152L
B9: C299A: mutation to UGT enzyme of SEQ ID NO: 14 (protein)
chain: B2 chain with I26V, C299A
B10: Q262E: mutation to UGT enzyme of SEQ ID NO: 14 (protein)
chain: B2 chain with I26V, Q262E
B11: T3R: mutation to UGT enzyme of SEQ ID NO: 14 (protein)
chain: B2 chain with T3R, I26V
B12: T453M: mutation to UGT enzyme of SEQ ID NO: 14 (protein)
chain: B2 chain with I26V, T453M
B13: L203I: mutation to UGT enzyme of SEQ ID NO: 14 (protein)
chain: B2 chain with I26V, L203I
B14: E254D: mutation to UGT enzyme of SEQ ID NO: 14 (protein)
chain: B2 chain with I26V, E254D
B15: G94R: mutation to UGT enzyme of SEQ ID NO: 14 (protein)
chain: B2 chain with I26V, G94R
B16: S123D: mutation to UGT enzyme of SEQ ID NO: 14 (protein)
chain: B2 chain with I26V, S123D
B17: S29T: mutation to UGT enzyme of SEQ ID NO: 14 (protein)
chain: B2 chain with I26V, S29T
B18: H99T: mutation to UGT enzyme of SEQ ID NO: 14 (protein)
chain: B2 chain with I26V, H99T
B19: G94T: mutation to UGT enzyme of SEQ ID NO: 14 (protein)
chain: B2 chain with I26V, G94T
B20: V31P: mutation to UGT enzyme of SEQ ID NO: 14 (protein)
chain: B2 chain with I26V, V31P
B21: V95Q: mutation to UGT enzyme of SEQ ID NO: 14 (protein)
chain: B2 chain with I26V, V95Q
B22: L58S: mutation to UGT enzyme of SEQ ID NO: 14 (protein)
chain: B2 chain with I26V, L58S
B23: Y267H: mutation to UGT enzyme of SEQ ID NO: 14 (protein)
chain: B2 chain with I26V, Y267H
B24: L11I: mutation to UGT enzyme of SEQ ID NO: 14 (protein)
chain: B2 chain with L11I, I26V
B25: P39T: mutation to UGT enzyme of SEQ ID NO: 14 (protein)
chain: B2 chain with I26V, P39T
B26: S151R: mutation to UGT enzyme of SEQ ID NO: 14 (protein)
chain: B2 chain with I26V, S151R
B27: D269R: mutation to UGT enzyme of SEQ ID NO: 14 (protein)
chain: B2 chain with I26V, D269R
B28: S308Q: mutation to UGT enzyme of SEQ ID NO: 14 (protein)
chain: B2 chain with I26V, S308Q
B29: T43D: mutation to UGT enzyme of SEQ ID NO: 14 (protein)
chain: B2 chain with I26V, T43D

These molecules were tested on steviol glycoside (assay: steviol glycoside bioconversion by E. coli expressing individual mutations of UGT SEQ ID NO: 14). Settings: fold improvement of % conversion vs parent UGT SEQ ID NO: 14; stevia leaf extract and glucose fed; 37° C., 48 hr.
Format: cell-based
Description: Fold improvement is with respect to % steviol glycoside conversion of the parent UGT enzyme of SEQ ID NO: 14. The UGT enzyme of SEQ ID NO: 15 has the following mutations from SEQ ID NO: 14: ins_A2_T3_RR, H59P, A238E, L417F. Stevia leaf extract and glucose were fed to the bioconversion strains. Bioconversion took place at 37° C. for 48 hr. Data were quantified by reverse phase LC DAD to quantify conversion of steviol glycosides.
Fold improvement (FI) is with respect to % steviol glycoside conversion.

Compared with B1, B2 is lower in “FI %Stevioside→rebE” value: 1.9 for the first, 1.18 for the second.

Compared with B3, B4 is lower in “FI %Stevioside→rebE” value: 1.9 for the first, 1.5 for the second.

First: B5
Second: B6
The “FI %Stevioside→rebE” value of the first is higher: 1.34 for the first, 1.02 for the second.

Going from B7 to B8, the “FI %Stevioside→rebE” value rises from 1.06 to 1.09.

Compared with B9, B10 is higher in “FI %Stevioside→rebE” value: 0.76 for the first, 2.0 for the second.

First: B11
Second: B12
The “FI %Stevioside→rebE” value of the first is higher: 1.9 for the first, 1.7 for the second.

Compared with B13, B14 is higher in “FI %Stevioside→rebE” value: 1.6 for the first, 1.7 for the second.

Going from B15 to B16, the “FI %Stevioside→rebE” value rises from 1.12 to 1.7.

Going from B17 to B18, the “FI %Stevioside→rebE” value falls from 1.05 to 0.76.

Compared with B19, B20 is lower in “FI %Stevioside→rebE” value: 1.6 for the first, 1.22 for the second.

Compared with B21, B22 is lower in “FI %Stevioside→rebE” value: 1.8 for the first, 1.5 for the second.

Going from B23 to B24, the “FI %Stevioside→rebE” value falls from 1.8 to 1.39.

First: B25
Second: B26
The “FI %Stevioside→rebE” value of the first is lower: 1.31 for the first, 1.6 for the second.

Going from B27 to B28, the “FI %Stevioside→rebE” value falls from 2.0 to 1.6.

For B29, the “FI %Stevioside→rebE” value was 1.29.

Compared with B1, B2 is lower in “FI %rebA→rebD” value: 1.6 for the first, 1.16 for the second.

First: B3
Second: B4
The “FI %rebA→rebD” value of the first is higher: 1.6 for the first, 1.4 for the second.

Going from B5 to B6, the “FI %rebA→rebD” value falls from 1.24 to 1.02.

First: B7
Second: B8
The “FI %rebA→rebD” value of the first is lower: 1.14 for the first, 1.15 for the second.

First: B9
Second: B10
The “FI %rebA→rebD” value of the first is lower: 1.03 for the first, 1.7 for the second.

Compared with B11, B12 is lower in “FI %rebA→rebD” value: 1.6 for the first, 1.5 for the second.

B13 and B14 are the same in “FI %rebA→rebD” value: 1.5 for the first, 1.5 for the second.

Compared with B15, B16 is higher in “FI %rebA→rebD” value: 1.13 for the first, 1.5 for the second.

Compared with B17, B18 is higher in “FI %rebA→rebD” value: 1.00 for the first, 1.04 for the second.

First: B19
Second: B20
The “FI %rebA→rebD” value of the first is higher: 1.4 for the first, 1.08 for the second.

Going from B21 to B22, the “FI %rebA→rebD” value falls from 1.6 to 1.4.

Going from B23 to B24, the “FI %rebA→rebD” value falls from 1.6 to 1.16.

Going from B25 to B26, the “FI %rebA→rebD” value rises from 0.98 to 1.5.

First: B27
Second: B28
The “FI %rebA→rebD” value of the first is higher: 1.7 for the first, 1.6 for the second.

In the case of B29, the “FI %rebA→rebD” value is reported as 1.08.

From patent US20260242839A1, “GLYCOSIDE PRODUCT BIOSYNTHESIS AND RECOVERY” (Manus Bio Inc., priority 2023, published 2026)
